Read-outs that look alike come from different tables or passages of the source.
Legend:
[1] = biological target: membrane-bound single-chain I-A^d-OVA (SCT1) on transfected NSO cells (mouse (I-A^d); chicken (OVA peptide)); assay: flow cytometry, FITC-conjugated 10-3.6 control (1:100) on T6 (SCT1-transfectant)
[2] = biological target: membrane-bound single-chain I-A^d-OVA (SCT1) on transfected NSO cells (mouse (I-A^d); chicken (OVA peptide)); assay: flow cytometry, FITC-conjugated 10-3.6 control (1:100) on T2 (SCT1-transfectant)
[3] = biological target: membrane-bound single-chain I-A^d-OVA (SCT1) on transfected NSO cells (mouse (I-A^d); chicken (OVA peptide)); assay: flow cytometry, FITC-conjugated 10-3.6 control (1:100) on T12 (SCT1-transfectant)
[4] = biological target: T cell receptor of the murine T cell hybridoma DO11.10, specific for OVA 323-339 presented by I-A^d; assay: cell-based or functional assay
[5] = biological target: T cell receptor of the murine T cell hybridoma DO11.10, specific for OVA 323-339 presented by I-A^d; assay: cell-based or functional assay; remark: listed apart in the source
[6] = biological target: soluble single-chain I-A^d-OVA with EE antibody tag (SCE1) secreted by transfected NSO cells (mouse (I-A^d); chicken (OVA peptide)); assay: I-A^d sandwich ELISA (capture M5/114, detection biotinylated AMS-32.1), undiluted supernatant of E11 (SCE1 transfectant)
[7] = biological target: soluble single-chain I-A^d-OVA from insect (SF9) cells (SSC1 gene in pMBSC1.2) (mouse (I-A^d); chicken (OVA peptide)); assay: I-A^d sandwich ELISA (capture M5/114, detection biotinylated AMS-32.1), cotransfection supernatant 1:2
[8] = biological target: membrane-bound single-chain I-A^d-OVA (SCT1) on transfected NSO cells (mouse (I-A^d); chicken (OVA peptide)); assay: flow cytometry, FITC-conjugated AMS 32.1 (1:100) on T12 (SCT1-transfectant)
[9] = biological target: membrane-bound single-chain I-A^d-OVA (SCT1) on transfected NSO cells (mouse (I-A^d); chicken (OVA peptide)); assay: flow cytometry, FITC-conjugated AMS 32.1 (1:100) on T6 (SCT1-transfectant)
[10] = biological target: soluble single-chain I-A^d-OVA from insect (SF9) cells (SSC1 gene in pMBSC1.2) (mouse (I-A^d); chicken (OVA peptide)); assay: I-A^d sandwich ELISA (capture M5/114, detection biotinylated AMS-32.1), cotransfection supernatant undiluted
[11] = biological target: soluble single-chain I-A^d-OVA from insect (SF9) cells (SSC1 gene in pMBSC1.2) (mouse (I-A^d); chicken (OVA peptide)); assay: I-A^d sandwich ELISA (capture M5/114, detection biotinylated AMS-32.1), supernatant of virus clone F8
[12] = biological target: soluble single-chain I-A^d-OVA from insect (SF9) cells (SSC1 gene in pMBSC1.2) (mouse (I-A^d); chicken (OVA peptide)); assay: I-A^d sandwich ELISA (capture M5/114, detection biotinylated AMS-32.1), cotransfection supernatant 1:4
[13] = biological target: soluble single-chain I-A^d-OVA from insect (SF9) cells (SSC1 gene in pMBSC1.2) (mouse (I-A^d); chicken (OVA peptide)); assay: I-A^d sandwich ELISA (capture M5/114, detection biotinylated AMS-32.1), cotransfection supernatant 1:8
[14] = biological target: soluble single-chain I-A^d-OVA from insect (SF9) cells (SSC1 gene in pMBSC1.2) (mouse (I-A^d); chicken (OVA peptide)); assay: I-A^d sandwich ELISA (capture M5/114, detection biotinylated AMS-32.1), sc I-A^d-OVA from insect cell culture (positive control)
[15] = biological target: soluble single-chain I-A^d-OVA from insect (SF9) cells (SSC1 gene in pMBSC1.2) (mouse (I-A^d); chicken (OVA peptide)); assay: I-A^d sandwich ELISA (capture M5/114, detection biotinylated AMS-32.1), supernatant of virus clone C6
[16] = biological target: membrane-bound single-chain I-A^d-OVA (SCT1) on transfected NSO cells (mouse (I-A^d); chicken (OVA peptide)); assay: flow cytometry, FITC-conjugated AMS 32.1 (1:100) on T2 (SCT1-transfectant)
[17] = biological target: soluble single-chain I-A^d-OVA with EE antibody tag (SCE1) secreted by transfected NSO cells (mouse (I-A^d); chicken (OVA peptide)); assay: I-A^d sandwich ELISA (capture M5/114, detection biotinylated AMS-32.1), undiluted supernatant of E10 (SCE1 transfectant)
[18] = biological target: Neuron Specific Enolase (NSE) in supernatant of SF9 cells infected with a recombinant Baculovirus; assay: I-A^d sandwich ELISA (capture M5/114, detection biotinylated AMS-32.1), NSE baculovirus supernatant as negative control
[19] = biological target: full length I-A^d/OVA 323-339 MHC class II fusion complex (pJRS165.1) expressed on NSO cells (mouse; chicken) (UniProt P04228); assay: flow cytometry, FITC-conjugated anti-IA^k control (1:100) on clone NSO/IA^d/OVA.B2
[20] = biological target: murine Class II MHC molecule I-A^d on A20.1-11 cells (mouse) (UniProt P04228); assay: flow cytometry, FITC-conjugated anti-IA^k control (1:100) on A20.1 cells (+ control)
[21] = biological target: full length I-A^d/OVA 323-339 MHC class II fusion complex (pJRS165.1) expressed on NSO cells (mouse; chicken) (UniProt P04228); assay: flow cytometry, FITC-conjugated anti-IA^k control (1:100) on clone NSO/IA^d/OVA.B5
[22] = biological target: full length I-A^d/OVA 323-339 MHC class II fusion complex (pJRS165.1) expressed on NSO cells (mouse; chicken) (UniProt P04228); assay: flow cytometry, FITC-conjugated anti-IA^k control (1:100) on clone NSO/IA^d/OVA.A4
[23] = biological target: full length I-A^d/OVA 323-339 MHC class II fusion complex (pJRS165.1) expressed on NSO cells (mouse; chicken) (UniProt P04228); assay: flow cytometry, FITC-conjugated anti-IA^k control (1:100) on clone NSO/IA^d/OVA.B4

UniProt P04228, sequence (P04228 24-256, chain 1 of 2): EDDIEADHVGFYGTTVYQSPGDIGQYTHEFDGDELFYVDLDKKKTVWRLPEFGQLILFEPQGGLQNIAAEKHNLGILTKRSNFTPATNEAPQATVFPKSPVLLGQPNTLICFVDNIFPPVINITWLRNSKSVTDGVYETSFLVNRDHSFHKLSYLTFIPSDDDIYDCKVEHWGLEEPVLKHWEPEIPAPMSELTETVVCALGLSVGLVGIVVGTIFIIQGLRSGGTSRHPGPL
UniProt P04228, sequence (P01921 28-265, chain 2 of 2, further chain): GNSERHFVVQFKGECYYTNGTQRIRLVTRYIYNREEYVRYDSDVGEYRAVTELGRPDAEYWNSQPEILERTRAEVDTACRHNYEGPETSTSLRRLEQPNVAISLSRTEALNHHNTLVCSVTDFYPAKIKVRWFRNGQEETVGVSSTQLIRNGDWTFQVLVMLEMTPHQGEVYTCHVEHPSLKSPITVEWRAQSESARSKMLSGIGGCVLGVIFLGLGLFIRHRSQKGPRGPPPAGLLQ

**Q.** For “isotype matched FITC-conjugated anti-I-A^k antibody, 10-3.6 (PharMingen)”, which Mean Fluorescence (mean fluorescence) [1] is on record?
**A.** 45.1

**Q.** What about the Mean Fluorescence (mean fluorescence) [2] of the same substance?
**A.** 22

**Q.** What about the Mean Fluorescence (mean fluorescence) [3] of the same substance?
**A.** 45.9

**Q.** Which results are given for “membrane-bound single-chain I-A^d-OVA (SCT1) on transfected NSO cells (peptide-MHC)”?
**A.** IL-2 ELISA result (Absorbance); antigen presenting cell T12 (SCT1 transfectant) [4]: 1.03 absorbance; IL-2 ELISA result (Absorbance); antigen presenting cell T2 (SCT1 transfectant) [5]: 0.758 absorbance; IL-2 ELISA result (Absorbance); antigen presenting cell T6 (SCT1 transfectant) [5]: 0.307 absorbance

**Q.** With “OVA 323-339 peptide presented by I-A^d on A20 cells (from UniProt P04228 24-256; P01921 28-265) (peptide-MHC)” as the substance, how does the IL-2 ELISA result (Absorbance); A20+OVA 323-339 peptide (positive control) [4] read?
**A.** 1.45 absorbance

**Q.** And the IL-2 ELISA result (Absorbance); A20+OVA 323-339 peptide (positive control) [5]?
**A.** 1.33 absorbance

**Q.** How did the IL-2 concentration in DO11 super; immobilized sc IA^d-OVA 78 ng/well [5] turn out when “soluble single-chain I-A^d-OVA from insect (SF9) cells (SSC1 gene in pMBSC1.2) (peptide-MHC)” was run?
**A.** 45 U/ml

**Q.** What about the IL-2 concentration in DO11 super; immobilized sc IA^d-OVA 156 ng/well [5] of the same substance?
**A.** 100 U/ml

**Q.** What about the IL-2 concentration in DO11 super; immobilized sc IA^d-OVA 312 ng/well [5] of the same substance?
**A.** 109 U/ml

**Q.** What about the IL-2 concentration in DO11 super; immobilized sc IA^d-OVA 625 ng/well [5] of the same substance?
**A.** 116 U/ml

**Q.** And the IL-2 concentration in DO11 super; immobilized sc IA^d-OVA 1250 ng/well [5]?
**A.** 126 U/ml

**Q.** What about the IL-2 concentration in DO11 super; immobilized sc IA^d-OVA 2500 ng/well [5] of the same substance?
**A.** 143 U/ml

**Q.** What about the IL-2 concentration in DO11 super; immobilized scIA^d-OVA 39 ng/well (extended dilution) [5] of the same substance?
**A.** 0 U/ml

**Q.** And the IL-2 concentration in DO11 super; immobilized scIA^d-OVA 78 ng/well (extended dilution) [5]?
**A.** 17 U/ml

**Q.** And the IL-2 concentration in DO11 super; immobilized scIA^d-OVA 156 ng/well (extended dilution) [5]?
**A.** 24 U/ml

**Q.** What about the IL-2 concentration in DO11 super; immobilized scIA^d-OVA 312 ng/well (extended dilution) [5] of the same substance?
**A.** 35 U/ml

**Q.** What about the IL-2 concentration in DO11 super; immobilized scIA^d-OVA 625 ng/well (extended dilution) [5] of the same substance?
**A.** 38 U/ml

**Q.** What about the IL-4 concentration in DO11 super; immobilized sc IA^d-OVA 78 ng/well [5] of the same substance?
**A.** 7 U/ml

**Q.** What about the IL-4 concentration in DO11 super; immobilized sc IA^d-OVA 156 ng/well [5] of the same substance?
**A.** 10 U/ml

**Q.** What about the IL-4 concentration in DO11 super; immobilized sc IA^d-OVA 312 ng/well [5] of the same substance?
**A.** 16 U/ml

**Q.** And the IL-4 concentration in DO11 super; immobilized sc IA^d-OVA 625 ng/well [5]?
**A.** 15 U/ml

**Q.** And the IL-4 concentration in DO11 super; immobilized sc IA^d-OVA 1250 ng/well [5]?
**A.** 20 U/ml

**Q.** And the IL-4 concentration in DO11 super; immobilized sc IA^d-OVA 2500 ng/well [5]?
**A.** 23 U/ml

**Q.** And the IL-r [IL-4] concentration in DO11 super; immobilized scIA^d-OVA 39 ng/well (extended dilution) [5]?
**A.** 0 U/ml

**Q.** And the IL-r [IL-4] concentration in DO11 super; immobilized scIA^d-OVA 78 ng/well (extended dilution) [5]?
**A.** 0.8 U/ml

**Q.** And the IL-r [IL-4] concentration in DO11 super; immobilized scIA^d-OVA 156 ng/well (extended dilution) [5]?
**A.** 0.9 U/ml

**Q.** What about the IL-r [IL-4] concentration in DO11 super; immobilized scIA^d-OVA 312 ng/well (extended dilution) [5] of the same substance?
**A.** 1.5 U/ml

**Q.** And the IL-r [IL-4] concentration in DO11 super; immobilized scIA^d-OVA 625 ng/well (extended dilution) [5]?
**A.** 2 U/ml

**Q.** What does the source list for “AMS-32.1 anti-IA^d (Pharmingen part number 06032D) (antibody)”?
**A.** Absorbance (405 nm) [6]: 0.96 absorbance; Absorbance (405 nm) [7]: 0.524 absorbance; Mean Fluorescence (mean fluorescence) [8]: 911; Mean Fluorescence (mean fluorescence) [9]: 418; Absorbance (405 nm) [10]: 0.857 absorbance; Absorbance (405 nm) [11]: 1.45 absorbance; Absorbance (405 nm) [12]: 0.305 absorbance; Absorbance (405 nm) [13]: 0.165 absorbance; Absorbance (405 nm) [14]: 2.44 absorbance; Absorbance (405 nm) [15]: 1.56 absorbance; Mean Fluorescence (mean fluorescence) [16]: 613; Absorbance (405 nm) [17]: 0.781 absorbance; Absorbance (405 nm) [18]: 0.098 absorbance

**Q.** How did the peak channel fluorescence [19] turn out when “FITC-conjugated anti-IA^k antibody (Pharmingen), isotype matched irrelevant antibody” was run?
**A.** 14 peak channel

**Q.** And the peak channel fluorescence [20]?
**A.** 5 peak channel

**Q.** And the peak channel fluorescence [21]?
**A.** 10 peak channel

**Q.** And the peak channel fluorescence [22]?
**A.** 34 peak channel

**Q.** What about the peak channel fluorescence [23] of the same substance?
**A.** 11 peak channel

Reference: patent EP0997477B1
